To fix the notation:
B1: TPR t1 (parent)
chain: GACCAAUCUGCCCUCAGAGCUCGAGAACAUCUUCGGAUGCAGAGGAGGCAGGCUUCGGUGGCGCGAUAGCGCCAACGUCCUCAACCUCCAAUGCAUCCCACCACAUGAUGAUGCCUGAAGAGCCUUGGUUUUUUG

In the data set the parent is B1. The data set is described as follows: polymerase ribozyme fitness, log enrichment relative to wild type (log ratio); higher = more active; in vitro selection for triplet polymerase activity. The procedure, abridged: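 The heterodimeric triplet polymerase ribozyme's subunits were each mutagenized into PCR-built libraries and transcribed. Every library was selected once, in triplicate, by annealing with a biotinylated primer, the partner subunit and triplets, incubating frozen at −7 °C, gel-excising extended constructs, capturing on streptavidin beads and running RT-PCR. Input and output libraries were Illumina-sequenced, with genotypes kept only at ≥10 input reads and ≥1 read per output. Fitness, from inverse-variance-weighted replicate averages, is the base-2 logarithm of genotype enrichment over wild-type enrichment.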
Consider G10U A41C G48U G113C, for which the “polymerase ribozyme fitness (log ratio)” value is -3.37. As to G10C G128C, the “polymerase ribozyme fitness (log ratio)” value is -3.1. With G10U C56A C73G the figure was -2.43.

As to G10U C72G A91G, the “polymerase ribozyme fitness (log ratio)” value was -1.95. Next, G10U G51C U106C: -3.5; G10U A27U U109A: -4.99. Next, G10U C13G G45U C72A A91G C102A A118U C124G U132A U133C: -3.66.

Take G10C U87C: the “polymerase ribozyme fitness (log ratio)” value is -1.18. Consider G10C C11U C94G, for which the “polymerase ribozyme fitness (log ratio)” value was -0.146. Turning to G10U A18G A37U C40U U112A U126C, the “polymerase ribozyme fitness (log ratio)” value is -1.57.

For G10U U30C, the “polymerase ribozyme fitness (log ratio)” value is -2.43. With G10U G19A G36C C79U the figure was -3.73; with G10C G63A C80U, -3.07.

With G10C G39A C76U A84U U87A, the “polymerase ribozyme fitness (log ratio)” value was -2.28. Next, G10U G61C: -1.82. With C11A A50G U81A the figure was -2.23; with G10U A84G G120A U125G, 0.926; with G10C A24G A46C C86G, -3.81. Next, G10U A29C G60A: -3.27. As for G10U C73U, the “polymerase ribozyme fitness (log ratio)” value is -0.579.

Turning to C11A C13U C53G A90C A91G, the “polymerase ribozyme fitness (log ratio)” value is -3.8. With G10U C13A G48U C94U U132A the figure was -0.329. Next, G10C C56U: -0.594; G10U G19C A37U C72A: -1.54.

On to G10U C28U G63A, for which the “polymerase ribozyme fitness (log ratio)” value is -4.31. Take G10U C56G A111C: the “polymerase ribozyme fitness (log ratio)” value was -0.962. With G10U C40U G52U C64U the figure was -1.92. With G10C U96G C97U G120C G135U the figure was -5.98. With G10U C13U U38G C123A the figure was 1.31; with G10C G71U C86U, -1.57.

For the variant G10C A37U A84G C85A C94U C101G, the “polymerase ribozyme fitness (log ratio)” value was -4.54. With G10U U38G C70A C73U C123A U130G the figure was -3.12; with G10U G17U G45U C104U C124A, -1.08. Regarding G10U C40A C76G A83U C101A, the “polymerase ribozyme fitness (log ratio)” value is -3.85. On to G10C A29C G61C C123U U125A G135A, for which the “polymerase ribozyme fitness (log ratio)” value is -4.26. With G10C U87G C115U A119G G120C U131G the figure was -1.59; with G10U G71A G120U, 1.24; with G10C C11G U21A, 0.0374. With G10U G128U U132C the figure was -0.604.

On to G10U C11G U14A A37G C76U G93C C102A, for which the “polymerase ribozyme fitness (log ratio)” value is -5.35. Next, G10U A103U: -4.38; G10U U54A: -1.28.

For G10U U30C U33C G71U C79U C101A C102G A111U, the “polymerase ribozyme fitness (log ratio)” value was -7.18. With G10C U54C G93C C102A the figure was -5.34. With C11A A74U the figure was -2.52; with G10U G44U C53U U96A U109C, -7.37. Take G10U G63U G113C: the “polymerase ribozyme fitness (log ratio)” value is -4.79.

Turning to G10C C11G C20U A43U C72U, the “polymerase ribozyme fitness (log ratio)” value is -2.23. Next, G10U C13U C73U C102G A119U C124A: -5.74.

For the variant G10C G61A U96A, the “polymerase ribozyme fitness (log ratio)” value is -0.958. With G10U C89A G117U the figure was -4.64; with G10U G60A C123G C124A, 3.33. With G10U C20A G42A G93U C115U the figure was -3.5; with G10C G110U, -2.66; with G10U C62U A111C G117C, -5.6. With C11A C12A the figure was -1.15. Take C11A C12U: the “polymerase ribozyme fitness (log ratio)” value was -0.179. With G10U C115G the figure was -1.99. Next, G10U C115A: -0.281. Next, G10U C114A U125A G135U: -3.39; G10U C80U: -0.415. With G10U C97U, the “polymerase ribozyme fitness (log ratio)” value is -0.693.

Regarding G10U C13G, the “polymerase ribozyme fitness (log ratio)” value was found to be 0.0488.

As to G10U C20U U32A U125G, the “polymerase ribozyme fitness (log ratio)” value is -4.96. With G10U C11A G36U U78G C115G the figure was -5.09. Turning to G10U A43C C76U A90C C115A, the “polymerase ribozyme fitness (log ratio)” value was -2.83. With G10C A24U C53A G63C G117C G128A, the “polymerase ribozyme fitness (log ratio)” value is -5.7. Regarding G10U G120U, the “polymerase ribozyme fitness (log ratio)” value came to 1.99.

Consider G10U A43U C73G A108G, for which the “polymerase ribozyme fitness (log ratio)” value was -6.59. With G10U U14A U132A the figure was -1.64. With G10C C115A G128A the figure was -3.1; with G10C C73G C80U, -3.34; with G10U G36A, -0.638. With G10U C22U C98U the figure was -5.53; with G10U A16U C72U C79A C114G C123A U130G, -6.07; with G10U G42U, -2.78.

On to G10U C53G U55A C56A G63A, for which the “polymerase ribozyme fitness (log ratio)” value is -2.18. On to G10C G69U C79G C80U, for which the “polymerase ribozyme fitness (log ratio)” value was -2.66. Next, G10C A37C: -1.41; C11A C13U: -1.75.

Turning to G10U C28U, the “polymerase ribozyme fitness (log ratio)” value is -2.12. With G10C C40G A66U the figure was -2.18.

With G10U C13U G48A G61A A83U C98U G117A, the “polymerase ribozyme fitness (log ratio)” value is -2.09.

Consider C11A C22A C56G U78A U112A U131A, for which the “polymerase ribozyme fitness (log ratio)” value was -2.4. In the case of G10C C13G G35A G61A C114U, the “polymerase ribozyme fitness (log ratio)” value is -5.47. With G10U C85U the figure was -0.736. G10U U87G C88G C98U G113A: the “polymerase ribozyme fitness (log ratio)” value was -1.98.

As for G10U C34A G69U G122A, the “polymerase ribozyme fitness (log ratio)” value amounted to 0.552. With G10U U14A C40A the figure was -2.63.

Consider G10U C34G G65U A66C C123U U125A G128U, for which the “polymerase ribozyme fitness (log ratio)” value is -7.34.

For G10U C15A G61U A75C G117A, the “polymerase ribozyme fitness (log ratio)” value is -3.07. Next, G10U U78C C86U G110A: -1.98; G10U G63C: -0.933; G10U G63A: -1.08. Next, G10U C11G C62G: -1.22; G10A U87A C115G C123G: -1.54. With G10U G60U U112A C114U the figure was -1.17; with G10U G110U C114U, -3.42; with G10U A26C A74G A90U G120A, -5.63. In the case of G10U C22A C72U U92G A105U A118G, the “polymerase ribozyme fitness (log ratio)” value is -7.38. Next, C11A C22U A91U C102U C115U G135U: -6.8. As to G10C A18U C88A C97U U106C, the “polymerase ribozyme fitness (log ratio)” value was -5.16. Consider G10U A26U, for which the “polymerase ribozyme fitness (log ratio)” value is -2.52.

For G10U U92G, the “polymerase ribozyme fitness (log ratio)” value is -3.71. Next, G10U U92C: -0.873. With G10U G71U the figure was -0.746; with G10U G71A, -0.104; with C11A C20U C40A A43U A119U, -5.02. Take C11A C12G C73A C104U G120A: the “polymerase ribozyme fitness (log ratio)” value is -1.09. With G10U U59A G71U the figure was -2.51. Next, G10U C12U A43U A118U: -0.927; G10U C11G G52U U109C C114U: -5.43. With G10U A46U C82G G127U the figure was -3.03. For the variant G10U G48U, the “polymerase ribozyme fitness (log ratio)” value is -0.243. With G10U A26U G42A U106A U125G the figure was -4.36. Next, C11A A16G G23U G39C C76U A95C G113U C114G: -7.17; G10U G48U G63A C85U C86G: -3.3.

In the case of G10C G52C G77U A121U, the “polymerase ribozyme fitness (log ratio)” value was 0.617. With G10C G60U C82A U96A G107U A119U the figure was -6.51; with C11A C31G G47A U92C G120A U131A, -5.58; with C11A C20U, -1.95. Next, C11A C13G G36U: -2.87.

With G10C C11A U54G A68U U109A G128U, the “polymerase ribozyme fitness (log ratio)” value is -7.09. With G10C C34U the figure was -5.43. Next, G10C A43G: -3.12; G10C A41C C70U: -3.72; C11A A29U U59A C70A G120A: -1.52. Next, C11A C13U C53A: -1.65. As to G10U C15G G120A, the “polymerase ribozyme fitness (log ratio)” value was -1.69. In the case of G10U G63U C79U U132A, the “polymerase ribozyme fitness (log ratio)” value is -0.795.

With C11A C28U G36A U81A C85U G120A, the “polymerase ribozyme fitness (log ratio)” value is -4.25.

As for C11A C13A C40U, the “polymerase ribozyme fitness (log ratio)” value was -3.65. With G10C A16C C53U G117U the figure was -4.5; with C11A C13G C20U C53U U78G, -2.65; with C11A C12U A37G U78A U131A, -1.88. With G10C G120C the figure was 1.04; with G10A U87G G110U, -1.12. Turning to G10C C12A U54C G122A, the “polymerase ribozyme fitness (log ratio)” value was 0.0391. Next, G10A U106A: 0.457. With G10A U106C the figure was -0.101; with G10U A29U C53G, -2.58. As for G10U G113C G120U A121C, the “polymerase ribozyme fitness (log ratio)” value is -2.24. With G10C G57A C88U U112G the figure was -3.48; with G10C A68G, -4.75.

Regarding G10U C88G G110C, the “polymerase ribozyme fitness (log ratio)” value was -5.78.

Regarding G10A U131A, the “polymerase ribozyme fitness (log ratio)” value is -0.339. On to G10U C76A G127C, for which the “polymerase ribozyme fitness (log ratio)” value is -2.18. Next, G10C G60U A118G: -1.45. Next, G10U G48C G60A: -0.865. As to G10U C22A A119U, the “polymerase ribozyme fitness (log ratio)” value is -5.31. Next, C11A A37G U59A U131C: -1.86; G10C U106C G127A G135U: -3.46. Next, G10U U32C C56A C64A: -6.8; G10C U109A: -6.66.

In the case of G10U G42U C104A G120C, the “polymerase ribozyme fitness (log ratio)” value is -4.1. With G10C G61U C114U the figure was -1.8.

Take C11A A84G: the “polymerase ribozyme fitness (log ratio)” value was -2.26. On to G10U A27G, for which the “polymerase ribozyme fitness (log ratio)” value was -0.702. C11A A50U: the “polymerase ribozyme fitness (log ratio)” value is -2.48. Next, C11A C12U A37G C73U U78A U131A: -0.943.

As for G10U C13A A41C G71A C85U, the “polymerase ribozyme fitness (log ratio)” value is -3.61. Next, G10C G52U G58C A84U: -2.42; G10U C12A C56A C72A C82A: -1.27; G10U C124U: 1.37. Next, C11A C12G A27U G63U G77A: -5.74; G10C A66G A83U: -1.48; G10C A16U C115A: -2.52.

These data come from the RNAGym collection of RNA variant scans (doi:10.1073/pnas.2313332121).
